Test results published in the Immune Epitope Database (IEDB).

How the values were obtained:
HLA-B*58:01 [1] = assay: IEDB peptide-MHC binding, purified MHC/competitive/fluorescence; ≥ and ≤ were set here for values at or beyond the usual limits of such assays; details: source organism: Homo sapiens
HLA-B*57:01 = assay: IEDB peptide-MHC binding, purified MHC/direct/fluorescence; filed as Kd, often an IC50 or EC50 that approximates it; ≥ and ≤ were set here for values at or beyond the usual limits of such assays; details: source organism: Encephalitozoon cuniculi GB-M1
HLA-A*02:12 = assay: as above
HLA-B*15:01 [2] = assay: as above
HLA-B*27:03 [3] = assay: as above; details: source organism: Encephalitozoon cuniculi GB-M1
HLA-A*02:11 = assay: as above
HLA-A*02:19 = assay: as above
HLA-B*51:01 [4] = assay: as above; details: source organism: Encephalitozoon cuniculi GB-M1
HLA-A*68:02 = assay: as above
HLA-B*39:01 [5] = assay: as above; details: source organism: Encephalitozoon cuniculi GB-M1
HLA-A*26:01 [6] = assay: as above
HLA-B*07:02 = assay: as above
HLA-A*03:01 [7] = assay: as above
HLA-A*02:01 [8] = assay: as above
HLA-B*35:01 = assay: as above
HLA-B*46:01 [9] = assay: as above; details: source organism: Encephalitozoon cuniculi GB-M1
HLA-A*02:16 = assay: as above
HLA-A*02:03 = assay: as above
HLA-B*18:01 [10] = assay: as above; details: source organism: Encephalitozoon cuniculi GB-M1
HLA-A*24:03 = assay: as above
HLA-A*29:02 = assay: as above; details: source organism: Ebola virus Yambio0403
HLA-B*58:01 [11] = assay: IEDB peptide-MHC binding, purified MHC/competitive/fluorescence; filed as Kd, often an IC50 or EC50 that approximates it; ≥ and ≤ were set here for values at or beyond the usual limits of such assays
HLA-B*27:03 [12] = assay: as above
HLA-B*39:01 [13] = assay: as above
HLA-A*69:01 [14] = assay: as above
HLA-A*26:01 [15] = assay: as above
HLA-A*02:01 [16] = assay: as above
HLA-B*46:01 [17] = assay: as above
HLA-B*18:01 [18] = assay: as above
HLA-B*15:01 [19] = assay: as above; details: source organism: Orthohantavirus andesense
HLA-B*51:01 [20] = assay: as above; details: source organism: Orthohantavirus andesense
HLA-A*11:01 = assay: IEDB peptide-MHC binding, purified MHC/direct/fluorescence; filed as Kd, often an IC50 or EC50 that approximates it; ≥ and ≤ were set here for values at or beyond the usual limits of such assays; details: source organism: Escherichia coli O157:H7
HLA-A*01:01 = assay: as above; details: source organism: Escherichia coli O157:H7
HLA-B*58:01 [21] = assay: as above; details: source organism: Escherichia coli O157:H7
HLA-B*08:01 = assay: as above; details: source organism: Escherichia coli O157:H7
HLA-B*27:05 = assay: as above; details: source organism: Escherichia coli O157:H7
HLA-B*40:01 = assay: as above; details: source organism: Escherichia coli O157:H7
HLA-A*69:01 [22] = assay: as above; details: source organism: Escherichia coli O157:H7
HLA-B*44:02 = assay: as above; details: source organism: Escherichia coli O157:H7
HLA-A*31:01 = assay: as above; details: source organism: Escherichia coli O157:H7
HLA-C*03:03 = assay: as above; details: source organism: Mus musculus
HLA-B*51:01 [23] = assay: IEDB peptide-MHC binding, purified MHC/competitive/fluorescence; ≥ and ≤ were set here for values at or beyond the usual limits of such assays; details: source organism: Mus musculus
HLA-A*03:01 [24] = assay: IEDB peptide-MHC binding, purified MHC/competitive/fluorescence; filed as Kd, often an IC50 or EC50 that approximates it; ≥ and ≤ were set here for values at or beyond the usual limits of such assays; details: source organism: Yersinia pestis Nepal516
[25] = source organism: Encephalitozoon cuniculi GB-M1
[26] = source organism: Ebola virus Yambio0403
[27] = source organism: Zaire ebolavirus
[28] = source organism: Orthohantavirus puumalaense
[29] = source organism: Orthohantavirus andesense
[30] = source organism: Escherichia coli O157:H7

QSSGSSSSGF
IC50 (HLA-B*58:01 [1]): ≥ 20 µM

SPLPITLKY
Kd (HLA-B*57:01): ≥ 20 µM | Kd (HLA-A*02:12; [25]): ≥ 20 µM | Kd (HLA-B*15:01 [2]; [25]): ≥ 20 µM | Kd (HLA-B*27:03 [3]): ≥ 20 µM | Kd (HLA-A*02:11; [25]): ≥ 20 µM | Kd (HLA-A*02:19; [25]): ≥ 20 µM | Kd (HLA-B*51:01 [4]): ≥ 20 µM | Kd (HLA-A*68:02; [25]): ≥ 20 µM | Kd (HLA-B*39:01 [5]): ≥ 20 µM | Kd (HLA-A*26:01 [6]; [25]): ≥ 20 µM | Kd (HLA-B*07:02; [25]): 4500 nM | Kd (HLA-A*03:01 [7]; [25]): ≥ 20 µM | Kd (HLA-A*02:01 [8]; [25]): ≥ 20 µM | Kd (HLA-B*35:01; [25]): 2 nM | Kd (HLA-B*46:01 [9]): ≥ 20 µM | Kd (HLA-A*02:16; [25]): ≥ 20 µM | Kd (HLA-A*02:03; [25]): ≥ 20 µM | Kd (HLA-B*18:01 [10]): ≥ 20 µM

ESLLHQASW
Kd (HLA-A*02:12; [26]): ≥ 20 µM | Kd (HLA-B*15:01 [2]; [27]): ≥ 20 µM | Kd (HLA-A*24:03; [26]): ≥ 20 µM | Kd (HLA-A*02:11; [26]): ≥ 20 µM | Kd (HLA-A*02:19; [26]): ≥ 20 µM | Kd (HLA-A*68:02; [26]): ≥ 20 µM | Kd (HLA-A*29:02): ≥ 20 µM | Kd (HLA-A*03:01 [7]; [26]): ≥ 20 µM | Kd (HLA-A*02:16; [26]): ≥ 20 µM | Kd (HLA-A*02:03; [26]): ≥ 20 µM | Kd (HLA-B*58:01 [11]; [27]): 2.1 nM | Kd (HLA-B*27:03 [12]; [27]): ≥ 20 µM | Kd (HLA-B*39:01 [13]; [27]): ≥ 20 µM | Kd (HLA-A*69:01 [14]; [27]): ≥ 20 µM | Kd (HLA-A*26:01 [15]; [27]): ≥ 20 µM | Kd (HLA-A*02:01 [16]; [27]): ≥ 20 µM | Kd (HLA-B*46:01 [17]; [27]): ≥ 20 µM | Kd (HLA-B*18:01 [18]; [27]): ≥ 20 µM

QIQAGNFHW
Kd (HLA-A*02:12; [28]): ≥ 20 µM | Kd (HLA-A*02:11; [28]): ≥ 20 µM | Kd (HLA-A*02:19; [28]): ≥ 20 µM | Kd (HLA-A*68:02; [28]): ≥ 20 µM | Kd (HLA-A*03:01 [7]; [28]): ≥ 20 µM | Kd (HLA-A*02:16; [28]): ≥ 20 µM | Kd (HLA-A*02:03; [28]): ≥ 20 µM | Kd (HLA-B*58:01 [11]; [29]): 2.2 nM | Kd (HLA-B*15:01 [19]): ≥ 20 µM | Kd (HLA-B*27:03 [12]; [29]): ≥ 20 µM | Kd (HLA-B*51:01 [20]): ≥ 20 µM | Kd (HLA-B*39:01 [13]; [29]): ≥ 20 µM | Kd (HLA-A*69:01 [14]; [29]): ≥ 20 µM | Kd (HLA-A*26:01 [15]; [29]): ≥ 20 µM | Kd (HLA-A*02:01 [16]; [29]): ≥ 20 µM | Kd (HLA-B*46:01 [17]; [29]): ≥ 20 µM | Kd (HLA-B*18:01 [18]; [29]): ≥ 20 µM

LPEFERRTL
Kd (HLA-A*11:01): ≥ 20 µM | Kd (HLA-A*01:01): ≥ 20 µM | Kd (HLA-B*58:01 [21]): ≥ 20 µM | Kd (HLA-B*15:01 [2]; [30]): ≥ 20 µM | Kd (HLA-A*24:03; [30]): ≥ 20 µM | Kd (HLA-B*08:01): 4.22 µM | Kd (HLA-B*27:05): ≥ 20 µM | Kd (HLA-B*40:01): ≥ 20 µM | Kd (HLA-A*69:01 [22]): ≥ 20 µM | Kd (HLA-B*44:02): ≥ 20 µM | Kd (HLA-A*26:01 [6]; [30]): ≥ 20 µM | Kd (HLA-B*07:02; [30]): 37.1 nM | Kd (HLA-A*03:01 [7]; [30]): ≥ 20 µM | Kd (HLA-A*02:01 [8]; [30]): ≥ 20 µM | Kd (HLA-A*31:01): ≥ 20 µM | Kd (HLA-B*35:01; [30]): 16.3 nM

VALFSSCPV
Kd (HLA-C*03:03): 2 nM | IC50 (HLA-B*51:01 [23]): 1850 nM

MTTSMTMSY
Kd (HLA-B*58:01 [11]; source organism: Yersinia pestis Nepal516): 47.5 nM | Kd (HLA-A*03:01 [24]): 302 nM
